The text below walks through data of patent publication US20060183130A1 (VANDERBILT UNIVERSITY, published 2006).

The assay concerns the target T1, endogenous c-Myc of p53-/- mouse embryo fibroblasts (mouse, UniProt P01108-2 1-439, limits assumed).
T1 construct: Endogenous protein in a cell lysate
Nature of the assay: co-IP, summary of the experiments (endogenous proteins). An excerpt:
FIGS. 2A-F ARF—binds to c-Myc. FIGS. 2A-D, Coimmunoprecipitation of ARF and c-Myc. Cos-7 cells transfected with c-Myc and/or ARF were subjected to immunoprecipitation (IP) using anti-Mycfl (fl, full length; FIG. 2A) or anti-ARF (FIG. 2B) followed by immunoblot (IB) analysis using the indicated antibody. FIG. 2C, c-myc^{-/-} cells, ARF^{-/-} MEFs or p53^{-/-} MEFs were subjected to IP using anti-Mycfl followed by IB analysis. FIG. 2D, HeLa cells were subjected to IP using anti-p14ARF or anti-Mycfl followed by IB analysis. FIG. 2E, Coimmunoprecipitation of c-Myc deletions with ARF. Cos-7 cells transfected with the indicated c-Myc deletion mutant were subjected to IP with anti-ARF followed by IB analysis. FIG. 2F, Schematic representation of the structure of c-Myc and c-Myc deletions showing relative binding to ARF.
Immunoprecipitation and Immunoblotting Analysis. Cell lysates were prepared and coimmunoprecipitation of endogenous proteins was performed as described previously (Weber et al., 1999). For coimmunoprecipitation of exogenous proteins, cells were lysed in Ab lysis buffer (20 mM Tris, pH 7.5, 0.5% Triton X-100, 0.5% deoxycholic acid (DOC) and 0.5% SDS, 1 mM EDTA) and immunoprecipitates were subjected immunoblot analysis using anti-c-Mycfl (06-340, Upstate) or anti-ARF (Ab80, GeneTex; 07-543, Upstate) and enhanced chemiluminescence for detection. […]

T1 sequence (P01108 16-454 limits assumed): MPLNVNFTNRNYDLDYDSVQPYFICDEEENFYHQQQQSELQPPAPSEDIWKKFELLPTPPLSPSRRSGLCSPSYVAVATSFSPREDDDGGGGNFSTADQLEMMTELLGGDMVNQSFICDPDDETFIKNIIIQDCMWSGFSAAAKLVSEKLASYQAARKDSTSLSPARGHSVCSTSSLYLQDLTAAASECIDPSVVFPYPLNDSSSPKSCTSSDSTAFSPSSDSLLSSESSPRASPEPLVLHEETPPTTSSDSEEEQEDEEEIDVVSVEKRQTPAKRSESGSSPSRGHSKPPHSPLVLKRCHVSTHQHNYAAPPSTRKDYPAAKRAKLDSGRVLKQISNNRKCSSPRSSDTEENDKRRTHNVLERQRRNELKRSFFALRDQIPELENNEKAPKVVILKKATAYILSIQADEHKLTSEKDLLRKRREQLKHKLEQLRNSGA

B1: mouse p19ARF (murine p19Arf) (other)
chain: MGRRFLVTVRIQRAGRPLQERVFLVKFVRSRRPRTASCALAFVNMLLRLERILRRGPHRNPGPGDDDGQRSRSSSSAQLRCRFELRGPHYLLPPGARRSAGRLPGHAGGAARVRGSAGCARCLGSPAARLGPRAGTSRHRAIFAFRWVLFVFRWVVFVYRWERRPDRRA
On to B1, for which the binding result is given as “binds”.
